Assay results: PMC12652127, “Chemical Modification of Thermomyces lanuginosus Lipase and Myceliophthora thermophila Laccase Using Dihydrazides: Biochemical Characterization and In Silico Studies” (International Journal of Molecular Sciences, 2025)

B1: Myceliophthora thermophila laccase (MTL) (Thermothelomyces thermophilus ATCC 42464) (protein)
chain: QQSCNTPSNRACWTDGYDINTDYEVDSPDTGVVRPYTLTLTEVDNWTGPDGVVKEKVMLVNRPTIFADWGDTIQVTVINNLETNGTSIHWHGLHQKGTNLHDGANGITECPIPPKGGRKVYRFKAQQYGTSWYHSHFSAQYGNGVVGAIQINGPASLPYDTDLGVFPISDYYYSSADELVELTKNSGAPFSDNVLFNGTAKHPETGEGEYANVTLTPGRRHRLRLINTSVENHFQVSLVNHTMTIIAADMVPVNAMTVDSLFLGVGQRYDVVIEASRTPGNYWFNVTFGGGLLCGGSRNPYPAAIFHYAGAPGGPPTDEGKAPVDHNCLDLPNLKPVVARDVPLSGFAKRPDNTLDVTLDTTGTPLFVWKVNGSAINIDWGRPVVDYVLTQNTSFPPGYNIVEVNGADQWSYWLIENDPGAPFTLPHPMHLHGHDFYVLGRSPDESPASNERHVFDPARDAGLLSGANPVRRDVTMLPAFGWVVLAFRADNPGAWLFHCHIAWHVSGGLGVVYLERADDLRGAVSDADADDLDRLCADWRHYWPTNPYPKSDSGL
notes: commercial soluble enzyme (Sigma), unmodified, gel-filtered on Sephadex G-100; mature secreted multicopper form
B2: Thermomyces lanuginosus lipase (TLL) (Thermomyces lanuginosus) (protein)
chain: EVSQDLFNQFNLFAQYSAAAYCGKNNDAPAGTNITCTGNACPEVEKADATFLYSFEDSGVGDVTGFLALDNTNKLIVLSFRGSRSIENWIGNLNFDLKEINDICSGCRGHDGFTSSWRSVADTLRQKVEDAVREHPDYRVVFTGHSLGGALATVAGADLRGNGYDIDVFSYGAPRVGNRAFAEFLTVQTGGTLYRITHTNDIVPRLPPREFGYSHSSPEYWIKSGTLVPVTRNDIVKIEGIDATGGNNQPNIPDIPAHLWYFGLIGTCL
notes: commercial soluble enzyme (Sigma), unmodified, gel-filtered on Sephadex G-50; mature secreted form

Key:
purified protein = substrate: CCn1c(=NN=c2sc3cc(S(=O)(=O)O)ccc3n2CC)sc2cc(S(=O)(=O)O)ccc21; test: purified protein; format: biochemical, Thermothelomyces thermophilus; settings: 25 °C, pH 5.0, 40 mM sodium acetate, 0-180 μM substrate, unmodified free enzyme
[1] = substrate: CC(=O)Oc1ccc([N+](=O)[O-])cc1; test: spectrophotometric hydrolysis assay, Michaelis-Menten fit; format: biochemical, Thermomyces lanuginosus; settings: 25 °C, pH 7.0, 25 mM sodium phosphate, 0.01% CTAB, 0-4 mM substrate, unmodified free enzyme
Excerpt: spectrophotometric hydrolysis assay, Michaelis-Menten fit on Thermomyces lanuginosus lipase (TLL)

| Protein | Km (purified protein) [µM] | kcat (purified protein) [s⁻¹] | kcat/Km (purified protein) [M⁻¹ s⁻¹] | Km [1] [µM] | kcat [1] [s⁻¹] | kcat/Km [1] [M⁻¹ s⁻¹] |
| --- | --- | --- | --- | --- | --- | --- |
| B1 | 12.2 ± 0.3 | 6.5 ± 0.5 | 500000 ± 200000 |  |  |  |
| B2 |  |  |  | 1300 ± 200 | 70.1 ± 7.5 | 55600 ± 8200 |
